Experimental data taken from patent US5565354 (Sandoz Ltd., dated 1996).

Assays:
[1] = biological target: hepatitis B surface antigen (HBsAg), preparation and subtype not stated (hepatitis B virus); experiment: AUSAB radioimmunoassay (Abbott), compared on a weight basis
[2] = biological target: T1, HBsAg subtype ayw (hepatitis B virus, UniProt P03138); experiment: solid phase RIA, 125I-labelled antibody on solid adsorbed HBsAg ayw, room temperature
[3] = biological target: serum-derived variant HBsAg, sample 'Patient #4 (251)' (hepatitis B virus); experiment: sandwich RIA, PE1-1 solid-adsorbed and ZM1-2 125I-labelled, patient serum HBsAg
[4] = biological target: serum-derived variant HBsAg of Patient #2 (hepatitis B virus); experiment: as above
[5] = biological target: serum-derived variant HBsAg, sample 'Patient #3 (264)' (hepatitis B virus); experiment: as above
[6] = biological target: T1, HBsAg subtype ayw; experiment: inhibition ELISA, soluble HBsAg ayw pre-incubated with antibody, HBsAg-coated well, 37 C
[7] = biological target: HBsAg of control HBsAg-positive serum (hepatitis B virus); experiment: sandwich RIA, PE1-1 solid-adsorbed and ZM1-2 125I-labelled; the control itself
[8] = biological target: HBsAg in serum from a hepatitis B positive patient (hepatitis B virus)
[9] = biological target: HBsAg of control HBsAg-positive serum (hepatitis B virus); experiment: sandwich RIA, solid-adsorbed and 125I-labelled ZM1-2; the control itself
[10] = biological target: serum-derived variant HBsAg, sample 'Patient #4 (251)' (hepatitis B virus); experiment: sandwich RIA, solid-adsorbed and 125I-labelled ZM1-2, patient serum HBsAg
[11] = biological target: serum-derived variant HBsAg of Patient #2 (hepatitis B virus); experiment: as above
[12] = biological target: serum-derived variant HBsAg, sample 'Patient #3 (264)' (hepatitis B virus); experiment: as above

| Binder | potency relative to the Bureau of Biologics reference hepatitis B immune globin [1] | potency relative to the commercial hepatitis B immune globulin preparations [1] | Ka [2] | relative reactivity (relative to control) [3] | relative reactivity (relative to control) [4] | relative reactivity (relative to control) [5] | Ka [6] | relative reactivity (relative to control) [7] | IC50 [8] | relative reactivity (relative to control) [9] | relative reactivity (relative to control) [10] | relative reactivity (relative to control) [11] | relative reactivity (relative to control) [12] |
| --- | --- | --- | --- | --- | --- | --- | --- | --- | --- | --- | --- | --- | --- |
| human monoclonal antibody PE1-1 (antibody, V domains shown) VH: QVQLVESGGGVVQPGRSLRLSCAASGFTFSRYGMHWVRQAPGKGLEWVAVISYDGSNKWYADSVKGRFTISRDNSKNTLFLQMHSLRAADTGVYYCAKDQLYFGSQSPGHYWVQGTLVTVSS VL: QSQLTQPPSVSVAPGQTARITCGGDNIGSKSVNWFQQKPGQAPVLVVYDDNERPSGISERFSGSNSGNTATLTISRVEAGDEADYYCQVWDSSSDHVVFGGGTKLTVL | 435 times | > 200 times | 3.6e+09 M⁻¹ | 0.024 | 0.07 | 0.173 | ~2e+09 M⁻¹ | 1 |  |  |  |  |  |
| human monoclonal antibody ZM1-2 (antibody, V domains shown) VH: QVQLQESGPGLVKAAETLSLTCTVSRGSFSDYFWNWFRQPAGKRLEWLGRVYTSGSVDYNPSLKSRVTVSVDTSKKQFSLRLSSVTVADTAVYYCARGLSGFDYWGQGALVTVSP VL: DIQMTQSPSSVSASVGDRVTVTCRASQGISSWLAWYQQKPGKAPKLLIHAASSLQSGVPSRFIGSGSGTDFTLTITSLQAEDFATYYCQQADSLPFTFGGGTKVDFKR |  |  | 1.5e+09 M⁻¹ |  |  |  | ~7e+08 M⁻¹ |  | 0.076 µg/mL | 1 | 0.01 | 0.233 | 0.179 |
| human monoclonal antibody ZM1-1 (antibody, V domains shown) VH: EVQLVESGGGLVQPGGSLRLSCAASGFTFSRYDMYWVRQATGKGLEWVSAIGPTGDTYYADSVKGRFTISRENAKNSLYLTMNGLRAGDTAVYYCARDLELWGQGTLVTVSS VL: DVVVTQSPLSLPVTLGQPASISCRSSLSLVDSDGNTYLNWFLQRPGQSPRRLIYQLSSRDSGVPDRFSGSGSGTDFTLKISRVEAEDVGVYYCMQGTHWPITFGQGTRLEIKR |  |  | 5e+09 M⁻¹ |  |  |  | ~1e+08 M⁻¹ |  |  |  |  |  |  |
